Data from US12559863B2, “Macrocyclic modulators of disease associated protein misfolding and aggregation” (RESQ BIOTECH, priority 2017, dated 2026).

Target: T1, Aβ42-GFP (Homo sapiens, UniProt P05067)
T1 construct: a chimeric fusion of the human Aβ(1-42) peptide (Aβ42) with GFP; expressed in transfected cells; host or cells: E. coli BL21(DE3)
Test: High-throughput sequencing of pSICLOPPS vectors isolated after bacterial sorting for enhanced Aβ42-GFP fluorescence
Conditions: for Reads/Total TXXXR reads (%): relative to total TXXXR reads; for Normalized read number (%): Table 3, cyclo-TXXR tetrapeptides
Description: On the other hand, very few bioactive sequences resembling AβC5-34 should exist. […] The peptide-encoding vectors contained in these clones were isolated and the peptide-encoding region of approximately 5.6 million of these plasmids was sequenced using an Ion Torrent high-throughput sequencing platform. […] First, pentapeptides were the dominant peptide species within the sorted pool (FIG. 12D), in agreement with previous observations (FIG. 8G). Second, the most prevalent motif among the selected pentapeptide sequences were TXXXR pentapeptides (˜47% of the selected pentapeptide-encoding pSICLOPPS plasmids; ˜42% of the unique selected pentapeptide sequences) (Table 1), in accordance with previous observations (FIG. 8G). […] At position 2, Thr, Ala, and Val were preferred, while aromatic residues (Phe, Trp, Tyr) were completely excluded from the selected TXXXR peptide pool, in full agreement with our site-directed mutagenesis studies. At the highly variable position 3, the complete absence of the negatively charged amino acids Glu and Asp among the selected sequences was notable (FIG. 12E). […] It is noteworthy, that Lys and Gln residues were practically absent from all positions, while the β sheet-breaking amino acid Pro that is typically included in designed peptide-based inhibitors of amyloid aggregation appeared with strikingly low frequencies (FIG. 12E).
Electrocompetent E. coli BL21(DE3) cells (Novagen, USA) carrying either the expression vector pETSOD1(A4V)-GFP, which produces SOD1(A4V)-GFP under control of the strong bacteriophage T7 promoter, or pETAβ42-GFP, which produces Aβ42-GFP under control of the T7 promoter, were co-transformed with the combined pSICLOPPS-NuX1X2X3-X5 vector library. Approximately 10^8 transformants carrying both the vector library and either pETSOD1(A4V)-GFP or pETAβ42-GFP vectors were harvested, pooled together, and grown in Luria-Bertani (LB) liquid medium containing either 0.005% (pETSOD1(A4F)-GFP) or 0.002% (pETAβ42-GFP) L-arabinose—the inducer of cyclic peptide production—at 37° C. with shaking. When the optical density at 600 nm (OD600) of the bacterial culture was about 0.5, 0.01 (pETSOD1(A4F)-GFP) or 0.1 (pETAβ42-GFP) mM isopropyl-β-D-thiogalactoside (IPTG) was added to the medium to induce overexpression of the reporter. […] The isolated cells were re-grown and screened for additional rounds in an identical manner until the desired enrichment in high-fluorescence clones was achieved.
For the characterization of the initial libraries, a combined pSICLOPPS-NuX1X2X3-X5 vector library was prepared containing approximately equal amounts of each one of the tetra-, penta- and hexapeptide sub-libraries. These samples were digested with NcoI and BsrGI and the resulting ˜250 bp product that contained the variable peptide-encoding region was isolated. High-throughput sequencing analysis was performed using an Ion Torrent high-throughput sequencing platform. From the obtained data, all the sequences with mismatches outside of the variable peptide-encoding region were removed, and only the 12-, 15- or 18-bp-long peptide-encoding sequences were subjected to further analysis. The libraries of the selected cyclic peptides that enhance either SOD1(A4V)-GFP or Aβ42-GFP fluorescence were sequenced in a similar manner, with the only exception being that all sequences including stop codons were discarded from subsequent analysis.

[1] = after the second round of bacterial sorting for enhanced Aβ42-GFP fluorescence
[2] = after the second round of bacterial sorting for enhanced Aβ42-GFP fluorescence, relative to total pentapeptide reads
[3] = after the second round of bacterial sorting for enhanced Aβ42-GFP fluorescence, relative to total peptide reads
[4] = pSICLOPPS-NuX1X2X3-X5 vectors after the second round of bacterial sorting for enhanced Aβ42-GFP fluorescence
[5] = Table 4, hexapeptides, after second round of sorting
[6] = after the second round of bacterial sorting
[7] = after the second round of bacterial sorting, relative to total pentapeptide reads
[8] = after the second round of bacterial sorting, relative to total peptide reads
[9] = high-throughput sequencing of isolated pSICLOPPS-NuX1X2X3-X5 vectors after the second round of bacterial sorting for enhanced Aβ42-GFP fluorescence, selected cyclo-TXXXR pentapeptides
[10] = Table 2, after second round of sorting

Substance	Reads/Total TXXXR reads (%) [6]	Reads/Total pentapeptide reads (%) [7]	Reads/Total peptide reads (%) [8]	Number of reads [9]	other results
AβC5-440 (TATGR; cyclic pentapeptide)	–	–	–	–	Reads/Total TXXXR reads (%) [1]: 0.003%; Reads/Total pentapeptide reads (%) [2]: 0.002%; Reads/Total peptide reads (%) [3]: 0.001%; Number of reads [4]: 61
AβC5-450 (TRDVR; cyclic pentapeptide)	–	–	–	–	Reads/Total TXXXR reads (%) [1]: 0.003%; Reads/Total pentapeptide reads (%) [2]: 0.001%; Reads/Total peptide reads (%) [3]: 0.001%; Number of reads [4]: 58
TPVWLD [AβC6-80]	–	–	–	–	Reads/Total hexapeptide reads (%) (Table 4): 0.012%; Reads/Total peptide reads (%) (Table 4): 0.001%; Number of reads [5]: 55
AβC5-263 (THLAR; cyclic)	0.015%	0.007%	0.006%	284	–
AβC5-51 (TSVDR; cyclic pentapeptide)	1.012%	0.474%	0.425%	19,249	–
AβC5-5 (TTTWR; cyclic pentapeptide)	9.228%	4.323%	3.874%	175,510	–
AβC5-53 (TTVWR; cyclic pentapeptide)	0.982%	0.460%	0.412%	18,669	–
AβC5-393 (TTGRR; head-to-tail cyclic)	–	–	–	–	Reads/Total TXXXR reads (%) [1]: 0.005%; Reads/Total pentapeptide reads (%) [2]: 0.002%; Reads/Total peptide reads (%) [3]: 0.002%; Number of reads [4]: 87
cyclo-TTCR (cyclic) [AβC4-9]	–	–	–	–	Normalized read number (%): 1.248%
TPAWSD [AβC6-69]	–	–	–	–	Reads/Total hexapeptide reads (%) (Table 4): 0.019%; Reads/Total peptide reads (%) (Table 4): 0.002%; Number of reads [5]: 86
AβC5-299 (TTVGR; cyclic)	0.011%	0.005%	0.004%	200	–
AβC5-362 (TTWDR; head-to-tail cyclic)	0.006%	0.003%	0.002%	107	–
AβC5-379 (TRLGR; head-to-tail cyclic)	0.005%	0.002%	0.002%	95	–
AβC5-136 (TALHR; cyclic)	0.107%	0.050%	0.045%	2,026	–
AβC5-381 (TTHTR; head-to-tail cyclic)	0.005%	0.002%	0.002%	93	–
TLEFFD [AβC6-4]	–	–	–	–	Reads/Total hexapeptide reads (%) (Table 4): 5.978%; Reads/Total peptide reads (%) (Table 4): 0.597%; Number of reads [5]: 27,057
AβC5-20 (TTISR; cyclic)	1.948%	0.912%	0.818%	37,044	–
AβC5-29 (TTLER; cyclic)	1.447%	0.678%	0.607%	27,514	–
AβC5-50 (TALAR; cyclic pentapeptide)	1.022%	0.479%	0.429%	19,433	–
AβC5-452 (THVDR; cyclic pentapeptide)	–	–	–	–	Reads/Total TXXXR reads (%) [1]: 0.003%; Reads/Total pentapeptide reads (%) [2]: 0.001%; Reads/Total peptide reads (%) [3]: 0.001%; Number of reads [4]: 58
TCSWFD [AβC6-27]	–	–	–	–	Reads/Total hexapeptide reads (%) (Table 4): 0.138%; Reads/Total peptide reads (%) (Table 4): 0.014%; Number of reads [5]: 623

Substance	Reads/Total TXXXR reads (%) [6]	Reads/Total pentapeptide reads (%) [7]	Reads/Total peptide reads (%) [8]	Number of reads [9]	other results
AβC5-276 (TSWAR; cyclic)	0.013%	0.006%	0.005%	249	–
cyclo-SICPT [AβC5-216]	–	–	–	–	Reads/Total SASPT-like reads (%) (Table 2): 1.957%; Reads/Total pentapeptide reads (%) (Table 2): 0.013%; Reads/Total peptide reads (%) (Table 2): 0.011%; Number of reads [10]: 516
AβC5-304 (TSINR; cyclic)	0.010%	0.004%	0.004%	182	–
TLEYFM [AβC6-28]	–	–	–	–	Reads/Total hexapeptide reads (%) (Table 4): 0.123%; Reads/Total peptide reads (%) (Table 4): 0.012%; Number of reads [5]: 556
AβC5-118 (TTFWR; cyclic)	0.222%	0.104%	0.093%	4,216	–
cyclo-SITPT [AβC5-380]	–	–	–	–	Reads/Total SASPT-like reads (%) (Table 2): 0.356%; Reads/Total pentapeptide reads (%) (Table 2): 0.002%; Reads/Total peptide reads (%) (Table 2): 0.002%; Number of reads [10]: 94
AβC5-410 (TVLGR; cyclic pentapeptide)	–	–	–	–	Reads/Total TXXXR reads (%) [1]: 0.004%; Reads/Total pentapeptide reads (%) [2]: 0.002%; Reads/Total peptide reads (%) [3]: 0.002%; Number of reads [4]: 76
AβC5-223 (TGLDR; cyclic)	0.024%	0.011%	0.010%	464	–
TPALVD [AβC6-53]	–	–	–	–	Reads/Total hexapeptide reads (%) (Table 4): 0.046%; Reads/Total peptide reads (%) (Table 4): 0.005%; Number of reads [5]: 208
AβC5-441 (TAWDR; cyclic pentapeptide)	–	–	–	–	Reads/Total TXXXR reads (%) [1]: 0.003%; Reads/Total pentapeptide reads (%) [2]: 0.002%; Reads/Total peptide reads (%) [3]: 0.001%; Number of reads [4]: 61
AβC5-343 (TNLDR; head-to-tail cyclic)	0.007%	0.003%	0.003%	125	–
cyclo-TRRR (cyclic) [AβC4-41]	–	–	–	–	Normalized read number (%): 0.2467%
AβC5-245 (TTRFR; cyclic)	0.019%	0.009%	0.008%	364	–
AβC5-278 (TTWLR; cyclic)	0.013%	0.006%	0.005%	241	–
AβC5-366 (TTMVR; head-to-tail cyclic)	0.006%	0.003%	0.002%	105	–
AβC5-365 (TTGGR; head-to-tail cyclic)	0.006%	0.003%	0.002%	106	–
TLDFFD [AβC6-63]	–	–	–	–	Reads/Total hexapeptide reads (%) (Table 4): 0.025%; Reads/Total peptide reads (%) (Table 4): 0.003%; Number of reads [5]: 114
TLGWLD [AβC6-42]	–	–	–	–	Reads/Total hexapeptide reads (%) (Table 4): 0.068%; Reads/Total peptide reads (%) (Table 4): 0.007%; Number of reads [5]: 307
AβC5-185 (TTFNR; cyclic)	0.042%	0.020%	0.018%	800	–
AβC5-264 (TSGAR; cyclic)	0.015%	0.007%	0.006%	282	–
